Laboratory results as given in patent US20210171647A1 (WUXI BIOLOGICS SHANGHAI, published 2021).
Changes are numbered by the printed parent chain.

Tests used:
Experiment in all cases: ELISA, antibody coated, OX40-ECD.His mutant supernatant; relative to silent alanine substitutions;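 note: captured OX40 mutant protein detected with HRP-labelled anti-His antibody, absorbance read-out, scaled to the mean signal of control mutants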
human OX40-ECD.His P171A = target: T1, human OX40-ECD.His P171A (human, UniProt P43489 29-214)
T1 construct: extracellular domain; not shown: C-terminal His-tag
T1 sequence (looked up): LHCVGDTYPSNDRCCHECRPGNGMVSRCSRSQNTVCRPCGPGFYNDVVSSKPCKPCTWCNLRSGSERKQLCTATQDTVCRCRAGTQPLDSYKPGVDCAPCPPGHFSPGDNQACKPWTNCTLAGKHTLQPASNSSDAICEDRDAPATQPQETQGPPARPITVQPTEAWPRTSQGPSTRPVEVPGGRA

human OX40-ECD.His L149A = target: T2, human OX40-ECD.His L149A (human, UniProt P43489 29-214)
T2 construct: extracellular domain; not shown: C-terminal His-tag
T2 sequence (looked up): T1 sequence (looked up) with L121A, A143P

human OX40-ECD.His E167A = target: T3, human OX40-ECD.His E167A (human, UniProt P43489 29-214)
T3 construct: extracellular domain; not shown: C-terminal His-tag
T3 sequence (looked up): T1 sequence (looked up) with E139A, A143P

human OX40-ECD.His S77A = target: T4, human OX40-ECD.His S77A (human, UniProt P43489 29-214)
T4 construct: extracellular domain; not shown: C-terminal His-tag
T4 sequence (looked up): T1 sequence (looked up) with S49A, A143P

human OX40-ECD.His P37A = target: T5, human OX40-ECD.His P37A (human, UniProt P43489 29-214)
T5 construct: extracellular domain; not shown: C-terminal His-tag
T5 sequence (looked up): T1 sequence (looked up) with P9A, A143P

human OX40-ECD.His D124A = target: T6, human OX40-ECD.His D124A (human, UniProt P43489 29-214)
T6 construct: extracellular domain; not shown: C-terminal His-tag
T6 sequence (looked up): T1 sequence (looked up) with D96A, A143P

human OX40-ECD.His A126G = target: T7, human OX40-ECD.His A126G (human, UniProt P43489 29-214)
T7 construct: extracellular domain; not shown: C-terminal His-tag
T7 sequence (looked up): T1 sequence (looked up) with A98G, A143P

human OX40-ECD.His N50A = target: T8, human OX40-ECD.His N50A (human, UniProt P43489 29-214)
T8 construct: extracellular domain; not shown: C-terminal His-tag
T8 sequence (looked up): T1 sequence (looked up) with N22A, A143P

human OX40-ECD.His K79A = target: T9, human OX40-ECD.His K79A (human, UniProt P43489 29-214)
T9 construct: extracellular domain; not shown: C-terminal His-tag
T9 sequence (looked up): T1 sequence (looked up) with K51A, A143P

human OX40-ECD.His K152A = target: T10, human OX40-ECD.His K152A (human, UniProt P43489 29-214)
T10 construct: extracellular domain; not shown: C-terminal His-tag
T10 sequence (looked up): T1 sequence (looked up) with K124A, A143P

B1: 1.134.9-u1-IgG1L (antibody, V domains shown)
VH: QVQLQESGPGLVKPSGTLSLTCAVSGGSISSYNWWSWVRQPPGKGLEWIGEIYHGGNTNYNPSLKSRVTMSVDNSKNQFSLKLSSVTAADTAVYYCARAPGDWGGSPYFDFWGQGTLVTVSS
VL: SSELTQDPAVSVALGQTVRITCQGDNLRTYYASWYQQKPGQAPILLIYGRNKRPSGIPDRFSGSSSGNTASLTITGAQAEDEAAYYCNSRDSSGNPVVFGGGTKLTVL
notes: fully human IgG1, lambda
Fold Change (human OX40-ECD.His P171A): 1.02
Fold Change (human OX40-ECD.His L149A): 1
Fold Change (human OX40-ECD.His E167A): 0.998
Fold Change (human OX40-ECD.His S77A): 0.879
Fold Change (human OX40-ECD.His P37A): 1.01
Fold Change (human OX40-ECD.His D124A): 0.989
Fold Change (human OX40-ECD.His A126G): 0.954
Fold Change (human OX40-ECD.His N50A): 0.961
Fold Change (human OX40-ECD.His K79A): 0.992
Fold Change (human OX40-ECD.His K152A): 0.81
